Source: US20240343803A1 (SHANDONG SIMCERE BIOPHARMACEUTICAL, published 2024)

B1: TIGIT-070-H2L2 (antibody, V domains shown)
VH: EVQLVQSGAEVKKPGASVKVSCKASGYTFTNYYMHWVRQAPGQRLEWMGRIDPDSGGSKYNEKFKSRVTITVDKLSSTAYMELSSLRSEDTAVYYCAREGHYGFYSDYWGQGTTVTVSS
VL: DIQMTQSPSSLSASVGDRVTITCRVSENIYSYLAWYQQKPGKSPKLLVYNAKTLAEGVPSRFSGSGSGTDFTLTISSLQPEDFATYYCQHHYGNPLTFGPGTKVDIK
notes: Humanized anti-TIGIT antibody
B2: TIGIT-070-H3L2 (antibody, V domains shown)
VH: EVQLVQSGAEVKKPGASVKVSCKASGYTFTNYYMHWVRQAPGQGLEWMGRIDPDSGGSKYNEKFKSRVTITVDKLSSTAYMELSSLRSEDTAVYYCAREGHYGFYSDYWGQGTTVTVSS
VL: DIQMTQSPSSLSASVGDRVTITCRVSENIYSYLAWYQQKPGKSPKLLVYNAKTLAEGVPSRFSGSGSGTDFTLTISSLQPEDFATYYCQHHYGNPLTFGPGTKVDIK
notes: Humanized anti-TIGIT antibody
B3: TIGIT-070-H3L1 (antibody, V domains shown)
VH: EVQLVQSGAEVKKPGASVKVSCKASGYTFTNYYMHWVRQAPGQGLEWMGRIDPDSGGSKYNEKFKSRVTITVDKLSSTAYMELSSLRSEDTAVYYCAREGHYGFYSDYWGQGTTVTVSS
VL: DIQMTQSPSSLSASVGDRVTITCRVSENIYSYLAWYQQKPGKSPKLLIYNAKTLAEGVPSRFSGSGSGTDFTLTISSLQPEDFATYYCQHHYGNPLTFGPGTKVDIK
notes: Humanized anti-TIGIT antibody
B4: TIGIT-070-H3L3 (antibody, V domains shown)
VH: EVQLVQSGAEVKKPGASVKVSCKASGYTFTNYYMHWVRQAPGQGLEWMGRIDPDSGGSKYNEKFKSRVTITVDKLSSTAYMELSSLRSEDTAVYYCAREGHYGFYSDYWGQGTTVTVSS
VL: DIVMTQSPDSLAVSLGERATINCRVSENIYSYLAWYQQKPGQSPKLLVYNAKTLAEGVPDRFSGSGSGTDFTLTISSLQAEDVAVYYCQHHYGNPLTFGPGTKVDIK
notes: Humanized anti-TIGIT antibody
B5: TIGIT-002-H4L3 (antibody, V domains shown)
VH: EVQLQESGPGLVKPSETLSLTCAVSGYSITSDSWNWIRQPPGKKLEYIGYISYSGNTYYNPSLKSRVTISRDTSKNQFSLKLSSVTAADTAVYYCARLDFSNYGGAVDYWGQGTTVTVSS
VL: DIVMTQSPDSLAVSLGERATINCKASQNVRTAVAWYQQKPGQSPKLMIYSASYRYTGVPDRFSGSGSGTDFTLTISSLQAEDVAVYYCQQYYTTPWTFGGGTKVEIK

Experiments:
[1] = target: T1, Fusion protein of extracellular domain of human TIGIT and His-tag (human TIGIT ECD-his) (human); assay: BIAcore
T1 chain: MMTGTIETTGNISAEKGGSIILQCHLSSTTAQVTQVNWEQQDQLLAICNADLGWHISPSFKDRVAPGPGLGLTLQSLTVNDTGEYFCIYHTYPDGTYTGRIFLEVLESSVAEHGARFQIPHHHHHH

[2] = target: T2, Fusion protein of extracellular domain of human TIGIT and mouse IgG2a Fc fragment (human TIGIT ECD-mFc) (human); assay: ELISA, human TIGIT ECD-mFc
T2 construct: The entry includes the signal peptide (limits not recoverable) and the mouse IgG2a Fc
T2 chain: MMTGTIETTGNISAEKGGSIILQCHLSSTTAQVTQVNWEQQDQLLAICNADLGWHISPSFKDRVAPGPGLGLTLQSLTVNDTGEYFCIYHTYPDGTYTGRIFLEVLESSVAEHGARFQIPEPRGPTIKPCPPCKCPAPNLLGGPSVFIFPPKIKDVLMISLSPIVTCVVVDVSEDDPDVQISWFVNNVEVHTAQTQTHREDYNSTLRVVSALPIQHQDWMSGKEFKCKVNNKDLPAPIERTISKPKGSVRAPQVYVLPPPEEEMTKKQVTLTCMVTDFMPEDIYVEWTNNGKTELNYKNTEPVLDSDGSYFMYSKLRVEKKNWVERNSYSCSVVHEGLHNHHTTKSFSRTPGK
Procedure, shortened: (§1)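 Antibodies diluted to 13 nM in 1% BSA, then 3-fold serial dilution for 12 concentrations, incubated with milk-blocked plates at 37° C for 1.5-2 h. Bound antibody detected with HRP-labelled secondary antibody (1:5000, 37° C, 1 h) and TMB, stopped with 1M HCl; OD450 nm read.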

[3] = target: T1, Fusion protein of extracellular domain …; assay: BIAcore; KD ratio to TIGIT-CHI-070
[4] = target: T3, Fusion protein of extracellular domain of cynomolgus monkey TIGIT and mouse IgG2a Fc fragment (cynomolgus … (cynomolgus monkey)); assay: ELISA, cynomolgus monkey TIGIT ECD-mFc
T3 construct: The entry includes the signal peptide (limits not recoverable) and the mouse IgG2a Fc
T3 sequence (chain, as listed by the source limits assumed): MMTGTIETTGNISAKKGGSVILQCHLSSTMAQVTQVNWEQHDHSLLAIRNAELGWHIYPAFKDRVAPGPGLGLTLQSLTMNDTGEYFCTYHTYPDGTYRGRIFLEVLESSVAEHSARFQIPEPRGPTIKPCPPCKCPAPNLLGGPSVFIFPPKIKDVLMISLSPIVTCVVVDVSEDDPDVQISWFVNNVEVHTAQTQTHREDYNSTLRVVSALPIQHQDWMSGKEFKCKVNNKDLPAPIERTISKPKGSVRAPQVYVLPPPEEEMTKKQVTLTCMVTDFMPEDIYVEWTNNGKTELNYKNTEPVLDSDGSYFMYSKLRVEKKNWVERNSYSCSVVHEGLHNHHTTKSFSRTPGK
Procedure, shortened: as §1

[5] = target: T4, Full-length cynomolgus monkey TIGIT on CHO-K1 cells (CHO-K1 cynomolgus monkey TIGIT) (cynomolgus monkey); assay: cell binding, CHO-K1 cynomolgus monkey TIGIT
T4 construct: NCBI XP_015300911.1
T4 sequence (chain, as listed by the source limits assumed): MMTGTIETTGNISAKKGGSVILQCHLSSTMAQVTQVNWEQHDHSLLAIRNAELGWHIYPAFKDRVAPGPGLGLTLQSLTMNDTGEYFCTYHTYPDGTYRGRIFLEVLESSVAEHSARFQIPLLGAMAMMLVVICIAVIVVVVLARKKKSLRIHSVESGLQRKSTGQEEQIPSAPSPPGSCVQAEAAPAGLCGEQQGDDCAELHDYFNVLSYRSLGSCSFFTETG
Procedure, shortened: (§2)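 Binding was measured by flow cytometry after a 60-minute, 4° C incubation of the antibodies with 2×10⁵ CHO-K1 cells displaying full-length human or cynomolgus monkey TIGIT. Antibody titration: 12 points, threefold serial dilution from 80 nM, in 1% BSA-PBS.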

[6] = target: T5, Fusion protein of extracellular domain of human TIGIT and human IgG1 Fc fragment (human TIGIT ECD-hFc) (human); assay: blocking of TIGIT ECD-hFc binding to CHO-K1 CD155 cells
T5 construct: The entry includes the signal peptide (limits not recoverable) and the human IgG1 Fc
T5 sequence (chain, as listed by the source limits assumed): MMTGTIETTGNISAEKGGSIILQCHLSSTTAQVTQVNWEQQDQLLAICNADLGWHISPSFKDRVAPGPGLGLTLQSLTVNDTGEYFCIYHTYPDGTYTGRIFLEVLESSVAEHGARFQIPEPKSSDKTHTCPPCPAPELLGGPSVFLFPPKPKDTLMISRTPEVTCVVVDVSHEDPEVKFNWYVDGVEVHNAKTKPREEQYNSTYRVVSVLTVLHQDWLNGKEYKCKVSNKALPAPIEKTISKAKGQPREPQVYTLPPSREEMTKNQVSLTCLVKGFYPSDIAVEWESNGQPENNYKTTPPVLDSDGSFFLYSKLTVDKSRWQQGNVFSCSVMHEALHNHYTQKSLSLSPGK
Procedure, shortened: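 Inhibition was expressed as IC50 values derived from the inhibition curves of a cell-based ELISA. CHO-K1 CD155 cells were cultured overnight, fixed, and blocked with 5% skim milk-PBS. Antibodies were first premixed for 0.5 h with human TIGIT ECD-hFc at a working concentration of 30 ng/mL, and the mixture was then added to the cells for 1.5-2 h at 37° C. Bound TIGIT was detected with HRP secondary antibody (1:5000, 37° C, 1 h) and TMB, and read as OD450 nm.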

[7] = target: T6, Full-length human TIGIT on CHO-K1 cells (CHO-K1 human TIGIT) (human, UniProt Q495A1 22-244); assay: cell binding, CHO-K1 human TIGIT high expression strain
T6 construct: NCBI XP_024309156.1; the entry includes the signal peptide (limits not recoverable); The strain (high, medium, low) is named under assay; also called high expression strain 1D2; medium expression strain 2D10
T6 sequence: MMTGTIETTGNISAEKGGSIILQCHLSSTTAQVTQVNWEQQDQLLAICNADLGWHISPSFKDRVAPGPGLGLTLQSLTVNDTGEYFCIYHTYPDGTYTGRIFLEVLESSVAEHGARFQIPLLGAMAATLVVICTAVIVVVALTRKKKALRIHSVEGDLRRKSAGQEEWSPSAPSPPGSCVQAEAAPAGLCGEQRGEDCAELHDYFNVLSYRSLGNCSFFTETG
Procedure, shortened: as §2

[8] = target: T7, human TIGIT ECD-mFc (human); assay: ELISA, human TIGIT ECD-mFc captured by anti-mouse IgG
T7 construct: also called human TIGIT protein; fusion protein of extracellular domain of human TIGIT and mouse IgG2a Fc fragment
T7 chain: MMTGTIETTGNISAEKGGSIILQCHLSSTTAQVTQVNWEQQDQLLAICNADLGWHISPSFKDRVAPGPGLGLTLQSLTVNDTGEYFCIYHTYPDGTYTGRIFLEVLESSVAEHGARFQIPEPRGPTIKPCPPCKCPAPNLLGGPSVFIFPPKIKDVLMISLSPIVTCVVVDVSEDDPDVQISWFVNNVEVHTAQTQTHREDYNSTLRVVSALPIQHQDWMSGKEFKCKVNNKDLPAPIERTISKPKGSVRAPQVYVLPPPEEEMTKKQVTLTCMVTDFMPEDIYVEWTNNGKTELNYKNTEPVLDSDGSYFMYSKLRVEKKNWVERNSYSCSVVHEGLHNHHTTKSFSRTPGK
Method: (§3) After washing with blocking buffer, the plate was added with 50 μL/well of 30 ng/ml human TIGIT ECD-mFc (in house) or cynomolgus monkey TIGIT ECD-mFc (in house) and incubated at 37° C. for 2.0 hours. After washing the plate, the serial diluted antibodies (initial concentration 13 nM, 3-fold serial dilution, 12 concentration points) were added into the plate (50 μL/well) and incubated at 37° C. for 2.0 hours. After washing the plate, the goat anti-human IgG Fc-HRP (Merck, Cat NO. AP113P)) working solution (dilution ratio 1:5000, 50 μL/well) were added into wells and incubated at 37° C. for 1.0 hour. A HRP substrate, TMB (KPL, Cat NO. 5120-0077) was added into wells after washing the plate again for color development. After adding a termination solution to terminate the reaction, the absorbance value was read by a microplate reader (PE, Ensight-HH3400). An antibody binding curve was drawn with molar concentration of antibodies as the abscissa and the corresponding OD value as the ordinate. The EC50 value was calculated by using a Four Parameter Logistic Fit (GraphPad Prism9). […] The positive control antibodies are RG6058-hIgG1, TIGIT-002-H4L3 and TIGIT-005-H2Lld; and the negative control antibodies are anti-Fluorescein-hIgG1 (in house). The binding results of the 4 humanized bispecific antibodies to human TIGIT protein are shown in FIG. 43 and Tables 42 and 43, and the binding results to cynomolgus monkey TIGIT are shown in FIG. 44 and Tables 42 and 43.

[9] = target: T8, cynomolgus monkey TIGIT ECD-mFc (cynomolgus monkey); assay: ELISA, cynomolgus TIGIT ECD-mFc captured by anti-mouse IgG
T8 construct: also called cynomolgus monkey TIGIT protein
Method: as §3

Row | Binder | Kd [1] | koff [1] | kon [1] | EC50 [2] | Fold change vs chimeric antibodies (KD) [3] | EC50 [4] | EC50 [5] | IC50 [6] | EC50 [7] | % relative activity RG6058-hIgG1/tested antibody [8] | % relative activity TIGIT-002-H4L3/tested antibody [8] | EC50 [8] | % relative activity RG6058-hIgG1/tested antibody [9] | % relative activity TIGIT-002-H4L3/tested antibody [9] | EC50 [9]
1 | B1 | 85.1 pM | 0.000142 s⁻¹ | 1.67e+06 M⁻¹ s⁻¹ | 12.5 pM | 0.87 fold | 11.2 pM | 66.2 pM | 448 pM | 31.2 pM | – | – | – | – | – | –
2 | B2 | 129 pM | 0.000168 s⁻¹ | 1.3e+06 M⁻¹ s⁻¹ | 14.3 pM | 1.32 fold | 15.7 pM | 66.5 pM | 423 pM | 27.6 pM | – | – | – | – | – | –
3 | B3 | 121 pM | 0.000152 s⁻¹ | 1.26e+06 M⁻¹ s⁻¹ | 13.1 pM | 1.23 fold | 13.9 pM | 74.1 pM | 463 pM | 13.2 pM | – | – | – | – | – | –
4 | B4 | 115 pM | 0.000151 s⁻¹ | 1.31e+06 M⁻¹ s⁻¹ | 15.1 pM | 1.17 fold | 14.2 pM | 55.6 pM | 417 pM | 30 pM | – | – | – | – | – | –
5 | B5 | – | – | – | – | – | – | – | – | – | 135% | 100% | 37.4 pM | 111% | 100% | 41.5 pM
